Measurements reported in the supplement of paper PMC10899765.

Tests used:
Conditions in all cases: 20 nM; 72 h
MCF10A [1] = test: percent viability (nuclei count relative to siNT); higher = more viable cells
Method: (§1)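 After 72 h, cells were fixed and stained with Hoechst and anti-fibrillarin, and nucleoli per nucleus were counted with CellProfiler. Values are plate-adjusted percent effect for the one-nucleolus and 5+ nucleoli phenotypes, normalised to siNT (0%) and to the positive controls siNOL11 or siKIF11 (100%), as the mean of biological triplicates. Percent viability is the nuclei count relative to siNT.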

MCF10A [2] = test: 5+ nucleoli phenotype percent effect (relative to siNT 0% and siKIF11 100%); higher = more cells with five or more nucleoli
Method: as §1

MCF10A [3] = test: one-nucleolus phenotype percent effect (relative to siNT 0% and siNOL11 100%); higher = more cells with one nucleolus (ribosome biogenesis inhibition)
Method: as §1

Row | Sequence | percent viability (MCF10A [1]) | 5+ nucleoli phenotype percent effect (MCF10A [2]) | one-nucleolus phenotype percent effect (MCF10A [3])
1 | AUGGCCAAAACUGCAGUUAUUUU [hsa-miR-548s] | 37.4% | 14.5% | 8.89%
2 | UCGCAGACAGGGACACAUGGAGA [hsa-miR-6767-5p] | 39% | 0.353% | -5.76%
3 | UCGUGUCCCUCUUGUCCACAG [hsa-miR-6774-3p] | 70% | 58.8% | -27%
4 | AUGGGUGAAUUUGUAGAAGGAU [hsa-miR-1262] | 27.2% | -20.4% | 17.3%
5 | CAGCCGCCGCCUGUCUCCACAG [hsa-miR-6746-3p] | 36.2% | 7.39% | -1.13%
6 | UGCAUGACCCUUCCCUCCCCAC [hsa-miR-6797-3p] | 31.8% | -8.08% | 1.95%
7 | GCUUGUCGCUGCGGUGUUGCU [hsa-miR-3655] | 65.9% | -7.75% | 29.1%
8 | CUCCUGAGCCAUUCUGAGCCUC [hsa-miR-1200] | 58% | -30.8% | 27.4%
9 | AUGUCCAUAUUAUGGGUUAGU [hsa-miR-3912-5p] | 83.8% | 83.1% | -28.3%
10 | UAAGUGCUUCCAUGCUU [hsa-miR-302e] | 93.6% | 65.3% | -16.8%
11 | UCGAGGACUGGUGGAAGGGCCUU [hsa-miR-3131] | 47.9% | -6.74% | 8.15%
12 | AAAAGUAUUUGCGGGUUUUGUC [hsa-miR-548l] | 127% | 30% | -20.8%
13 | UAUACAAGGGCAAGCUCUCUGU [hsa-miR-381-3p] | 90.7% | 3.97% | -13.7%
14 | UUUGAGGCUACAGUGAGAUGUG [hsa-miR-1304-5p] | 68.3% | 15.4% | 0.012%
15 | CUUGCCAUCCUGGUCCACUGCAU [hsa-miR-4776-3p] | 20.6% | -38.5% | 25.4%
16 | GGGACCCAGGGAGAGACGUAAG [hsa-miR-711] | 80.1% | 30.4% | -15.3%
17 | CACCUCUCCUGGCAUCGCCCC [hsa-miR-6800-3p] | 128% | 21.6% | -20.1%
18 | UUGGGGAUUGGGUCAGGCCAGU [hsa-miR-6857-5p] | 6.01% | -18% | 29.9%

Row | Sequence | percent viability (MCF10A [1]) | 5+ nucleoli phenotype percent effect (MCF10A [2]) | one-nucleolus phenotype percent effect (MCF10A [3])
19 | CUGACUGUUGCCGUCCUCCAG [hsa-miR-943] | 62.9% | -13.7% | -0.183%
20 | UCGUAUCAGAGAUUCCAGACAC [hsa-miR-6506-3p] | 85.1% | -11.2% | 5.43%
21 | AGAUGUAUGGAAUCUGUAUAUAUC [hsa-miR-3171] | 91.9% | 13.6% | -12.5%
22 | GAGGUUUGGGGAGGAUUUGCU [hsa-miR-4748] | 24.1% | -23.1% | 39.1%
23 | CAGUGGUUUUACCCUAUGGUAG [hsa-miR-140-5p] | 61.4% | -31.4% | 20.1%
24 | AUAGGACUCAUAUAGUGCCAG [hsa-miR-3117-3p] | 35.4% | 33% | -13.2%
25 | AAGGAACCAGAAAAUGAGAAGU [hsa-miR-3914] | 111% | 57.2% | -40.6%
26 | UGUGAGGUUGGCAUUGUUGUCU [hsa-miR-1294] | 28.9% | -10.7% | 19%
27 | AGGGAGGGACGGGGGCUGUGC [hsa-miR-149-3p] | 15.1% | -16.6% | 42.9%
28 | GCCCGCGUGUGGAGCCAGGUGU [hsa-miR-1471] | 97.1% | 49.2% | -18.2%
29 | CCCAGUGUUCAGACUACCUGUUC [hsa-miR-199a-5p] | 68.8% | -30.3% | 4.51%
30 | AGAGCUGAGACUAGAAAGCCCA [hsa-miR-3160-3p] | 19.1% | -5.31% | 23.1%
31 | AGAGAUUGGUAGAAAUCAGGU [hsa-miR-5186] | 33.8% | -25.3% | 28.7%
32 | UGUCUUGCAGGCCGUCAUGCA [hsa-miR-431-5p] | 28.5% | -40.8% | 53.9%
33 | ACUGGACUAGGAGUCAGAAGG [hsa-miR-378i] | 32.1% | -12.9% | 4.21%
34 | AGCUGUAAUUAGUCAGUUUUCU [hsa-miR-1537-5p] | 117% | 31.8% | -20.9%
35 | CUCUCUACUGACUUGCAACAUA [hsa-miR-4684-5p] | 72.5% | 33.1% | -6.81%
36 | CAGUAACAAAGAUUCAUCCUUGU [hsa-miR-802] | 81.8% | -6.89% | -6.9%
